Consider 13 molecules from US20190359693A1.

Test in all cases: cell-based or functional assay
Assay [1] concerns the target hemagglutinin (HA) of influenza virus B/Florida/04/06 (Yamagata) (influenza B virus).
The target of assay [2] is hemagglutinin (HA) of influenza virus B/Lee/40 (Old) (influenza B virus) (UniProt P03460).
Assay [3] has as its target hemagglutinin (HA) of influenza virus H3N2 A/Brisbane/10/07 (influenza A virus).
Assay [4] concerns the target hemagglutinin (HA) of influenza virus H7N3 A/NIBRG/60 (A/mallard/Netherlands/12/00) (influenza A virus).
For assay [5], the target named is hemagglutinin (HA) of influenza virus H5N1 A/Vietnam/1194/04 (influenza A virus).
The target in assay [6] is HA of H1N1 A/New Caledonia/20/1999 (influenza A virus).
For assay [7], the target named is HA of H3N2 A/Brisbane/10/2007 (influenza A virus).
Assay [8] deals with HA of H7N3 A/NIBRG/60 (A/mallard/NL/12/00) (influenza A virus).
Assay [9] deals with HA of H5N1 A/Vietnam/1194/04 (influenza A virus).
For assay [10], the target named is hemagglutinin (HA) of influenza virus H3N2 A/Wisconsin/67/05 (influenza A virus).
In assay [11] the target is hemagglutinin (HA) of influenza virus H1N1 A/New Caledonia/20/99 (influenza A virus).
In assay [12] the target is hemagglutinin (HA) of influenza virus H1N1 A/Puerto Rico/8/34-MA (influenza A virus).

B1: MD1223 (bispecific antibody)
chain: EVQLVESGGGLVQPGGSLKLSCAASGFTFSTSWMYWLRQAPGKGLEWVSVINTDGGTYYADSVKDRFTISRDNAKDTLYLQMSSLKSEDTAVYYCAKDWGGPEPTRGQGTQVTVSSAAAGGGGSGGGGSGGGGSGGGGSGGGGSGGGGSGGGGSEVQLVESGGGLVQPGGSLRLSCAATGFTLENKAIGWFRQTPGSEREGVLCISKSGSWTYYTDSMRGRFTISRDNAENTVYLQMDSLKPEDTAVYYCATTTAGGGLCWDGTTFSRLASSWGQGTQVTVSS
Consider B1, for which the neutralization titer in assay [1] turned out to be 2.3 nM; in [2], 18 nM.

B2: MD2308 (bispecific antibody)
chain: EVQLVESGGGLVQAGDSLRISCAASGRTLSIYSMGWFRQAPGKEREFVATIGWNSGRTFYPDSLKGRFTISRDNARNTLYLQMNNLRPEDTAVYYCAAAKGPLRLSSQADYWGQGTQVTVSSGGGGSGGGGSEVQLVESGGGLVQPGGSLRLSCAATGFTLENKAIGWFRQTPGSEREGVLCISKSGSWTYYTDSMRGRFTISRDNAENTVYLQMDSLKPEDTAVYYCATTTAGGGLCWDGTTFSRLASSWGQGTQVTVSSGGGGSGGGGSEVQLVESGGGLVQAGDSLRLSCAASGPTFGMSAMGWFRQAPGKEREFVAAISGLGNPNYSDDVKGRFTISRENGRNTVYLQMNSLKPEDTAVYYCAQRKVYHVQGGDRPQAYDYWGQGTQVTVSS
As for B2, the results for the average neutralization titer in [3], in assay [4] and in [5] were 15.3 nM, 12.8 nM and 21.6 nM, respectively.

B3: SD1072 (VHH)
VHH: EVQLVESGGGLVEAGGSLRLSCAVSGRTFSMYATGWFRQAPGKEREFVAAINSSGDKTTYADSVEGRFTISRDIGTVYLQMNNLNPEDTAVYYCAAARTLAVVTIPGGYEYWGQGTQVTVSS
In the case of B3, the VNA titer in [6] is 78.5 nM; in [7], greater than 1000 nM; in assay [8], greater than 1000 nM; in [9] it was 444 nM.

B4: MD2304 (bispecific antibody)
chain: EVQLVESGGGLVQPGGSLRLSCAATGFTLENKAIGWFRQTPGSEREGVLCISKSGSWTYYTDSMRGRFTISRDNAENTVYLQMDSLKPEDTAVYYCATTTAGGGLCWDGTTFSRLASSWGQGTQVTVSSGGGGSGGGGSEVQLVESGGGLVQPGGSLRLSCAVSISIFDIYAMDWYRQAPGKQRDLVATSFRDGSTNYADSVKGRFTISRDNAKNTLYLQMNSLKPEDTAVYLCHVSLYRDPLGVAGGMGVYWGKGALVTVSSGGGGSGGGGSEVQLVESGGGLVQPGGSLRLSCAVSISIFDIYAMDWYRQAPGKQRDLVATSFRDGSTNYADSVKGRFTISRDNAKNTLYLQMNSLKPEDTAVYLCHVSLYRDPLGVAGGMGVYWGKGALVTVSS
Turning to B4, the values for the average neutralization titer in assay [10] and in assay [11] were 18.2 nM and 20.6 nM, respectively.

B5: MD2309 (bispecific antibody)
chain: EVQLVESGGGLVQAGDSLRISCAASGRTLSIYSMGWFRQAPGKEREFVATIGWNSGRTFYPDSLKGRFTISRDNARNTLYLQMNNLRPEDTAVYYCAAAKGPLRLSSQADYWGQGTQVTVSSGGGGSGGGGSEVQLVESGGGLVQAGDSLRLSCAASGPTFGMSAMGWFRQAPGKEREFVAAISGLGNPNYSDDVKGRFTISRENGRNTVYLQMNSLKPEDTAVYYCAQRKVYHVQGGDRPQAYDYWGQGTQVTVSSGGGGSGGGGSEVQLVESGGGLVQPGGSLRLSCAATGFTLENKAIGWFRQTPGSEREGVLCISKSGSWTYYTDSMRGRFTISRDNAENTVYLQMDSLKPEDTAVYYCATTTAGGGLCWDGTTFSRLASSWGQGTQVTVSS
As to B5, the values for the average neutralization titer in [3], in [4] and in assay [5] were 12.8 nM, 9.1 nM and 12.8 nM, respectively.

B6: MD2305 (bispecific antibody)
chain: EVQLVESGGGLVQPGGSLRLSCAVSISIFDIYAMDWYRQAPGKQRDLVATSFRDGSTNYADSVKGRFTISRDNAKNTLYLQMNSLKPEDTAVYLCHVSLYRDPLGVAGGMGVYWGKGALVTVSSGGGGSGGGGSEVQLVESGGGLVQPGGSLRLSCAATGFTLENKAIGWFRQTPGSEREGVLCISKSGSWTYYTDSMRGRFTISRDNAENTVYLQMDSLKPEDTAVYYCATTTAGGGLCWDGTTFSRLASSWGQGTQVTVSSGGGGSGGGGSEVQLVESGGGLVQPGGSLRLSCAVSISIFDIYAMDWYRQAPGKQRDLVATSFRDGSTNYADSVKGRFTISRDNAKNTLYLQMNSLKPEDTAVYLCHVSLYRDPLGVAGGMGVYWGKGALVTVSS
With B6, the average neutralization titer stood at 21.7 nM in assay [10] and 4.3 nM in assay [11].

B7: SD1071 (VHH)
VHH: EVQLVESGGGLVQTGESLRLSCAFSGFTYSTYWMYWVRQGPEKGLKWVSSTNAAGTVTYYAANVRDRFTASKDNAKNTLYLQMNRLKPEDTGLYYCASKDGLIVAATLDDYDYRGQGTQVTVSS
For the molecule B7, the VNA titer in [6] is 1260 nM; in assay [7], greater than 1000 nM; in assay [8] it was greater than 1000 nM; in assay [9] it was 111 nM.

B8: MD2314 (bispecific antibody)
chain: EVQLVESGGGLVQAGDSLRLSCAASGPTFGMSAMGWFRQAPGKEREFVAAISGLGNPNYSDDVKGRFTISRENGRNTVYLQMNSLKPEDTAVYYCAQRKVYHVQGGDRPQAYDYWGQGTQVTVSSGGGGSGGGGSEVQLVESGGGLVQAGDSLRLSCAASGPTFGMSAMGWFRQAPGKEREFVAAISGLGNPNYSDDVKGRFTISRENGRNTVYLQMNSLKPEDTAVYYCAQRKVYHVQGGDRPQAYDYWGQGTQVTVSSGGGGSGGGGSEVQLVESGGGLVQPGGSLRLSCAATGFTLENKAIGWFRQTPGSEREGVLCISKSGSWTYYTDSMRGRFTISRDNAENTVYLQMDSLKPEDTAVYYCATTTAGGGLCWDGTTFSRLASSWGQGTQVTVSS
Regarding B8, the average neutralization titer in [3] is greater than 1000 nM; in assay [4] it was greater than 1000 nM; in assay [5], 6.5 nM.

B9: MD2311 (bispecific antibody)
chain: EVQLVESGGGLVQAGDSLRLSCAASGPTFGMSAMGWFRQAPGKEREFVAAISGLGNPNYSDDVKGRFTISRENGRNTVYLQMNSLKPEDTAVYYCAQRKVYHVQGGDRPQAYDYWGQGTQVTVSSGGGGSGGGGSEVQLVESGGGLVQPGGSLRLSCAATGFTLENKAIGWFRQTPGSEREGVLCISKSGSWTYYTDSMRGRFTISRDNAENTVYLQMDSLKPEDTAVYYCATTTAGGGLCWDGTTFSRLASSWGQGTQVTVSSGGGGSGGGGSEVQLVESGGGLVQAGDSLRISCAASGRTLSIYSMGWFRQAPGKEREFVATIGWNSGRTFYPDSLKGRFTISRDNARNTLYLQMNNLRPEDTAVYYCAAAKGPLRLSSQADYWGQGTQVTVSS
Consider B9, for which the average neutralization titer in assay [3] was 21.6 nM; in [4] it was 15.3 nM; in assay [5], 12.8 nM.

B10: SD1036 + SD1038 (protein)
VHH 1: EVQLVESGGGLVQAGGSLKLSCAASGRTYAMGWFRQAPGKEREFVAHINALGTRTYYSDSVKGRFTISRDNAKNTEYLEMNNLKPEDTAVYYCTAQGQWRAAPVAVAAEYEFWGQGTQVTVSS
VHH 2: EVQLVESGGGLVQPGGSLRLSCAVSISIFDIYAMDWYRQAPGKQRDLVATSFRDGSTNYADSVKGRFTISRDNAKNTLYLQMNSLKPEDTAVYLCHVSLYRDPLGVAGGMGVYWGKGALVTVSS
With B10, the neutralization titer in [10] was less than 1000 nM; in assay [12], 6.8 nM; in assay [5], 19.3 nM.

B11: MD2310 (bispecific antibody)
chain: EVQLVESGGGLVQPGGSLRLSCAATGFTLENKAIGWFRQTPGSEREGVLCISKSGSWTYYTDSMRGRFTISRDNAENTVYLQMDSLKPEDTAVYYCATTTAGGGLCWDGTTFSRLASSWGQGTQVTVSSGGGGSGGGGSEVQLVESGGGLVQAGDSLRLSCAASGPTFGMSAMGWFRQAPGKEREFVAAISGLGNPNYSDDVKGRFTISRENGRNTVYLQMNSLKPEDTAVYYCAQRKVYHVQGGDRPQAYDYWGQGTQVTVSSGGGGSGGGGSEVQLVESGGGLVQAGDSLRISCAASGRTLSIYSMGWFRQAPGKEREFVATIGWNSGRTFYPDSLKGRFTISRDNARNTLYLQMNNLRPEDTAVYYCAAAKGPLRLSSQADYWGQGTQVTVSS
For B11, the average neutralization titer in assay [3] was determined as 25.5 nM; in [4] it was 30.4 nM; in assay [5] it was 21.6 nM.

B12: MD2307 (bispecific antibody)
chain: EVQLVESGGGLVQPGGSLRLSCAATGFTLENKAIGWFRQTPGSEREGVLCISKSGSWTYYTDSMRGRFTISRDNAENTVYLQMDSLKPEDTAVYYCATTTAGGGLCWDGTTFSRLASSWGQGTQVTVSSGGGGSGGGGSEVQLVESGGGLVQAGDSLRISCAASGRTLSIYSMGWFRQAPGKEREFVATIGWNSGRTFYPDSLKGRFTISRDNARNTLYLQMNNLRPEDTAVYYCAAAKGPLRLSSQADYWGQGTQVTVSSGGGGSGGGGSEVQLVESGGGLVQAGDSLRLSCAASGPTFGMSAMGWFRQAPGKEREFVAAISGLGNPNYSDDVKGRFTISRENGRNTVYLQMNSLKPEDTAVYYCAQRKVYHVQGGDRPQAYDYWGQGTQVTVSS
As for B12, the average neutralization titer in assay [3] stood at 30.4 nM; in assay [4], 18.1 nM; in assay [5], 21.6 nM.

B13: SD1074 (VHH)
VHH: EVQLVESGGGLVQAGGSLRLSCAASRNFDAIGAMGWYRQAPGKQRELVAEITSDGSTNYTDSVKGRFTISRDNALRTMYLQMNALEPEDTAVYYCKADISIYGLTNFPYWGQGTQVTVSS
On to B13, for which the VNA titer was 113 nM in assay [6], greater than 1000 nM in [7], greater than 1000 nM in [8] and 638 nM in assay [9].
